B1: 26F1 scFv (single-chain variable fragment) (scFv)
scFv: DVQLQESGPGLVKPSQSLSLTCTVTGYSITSDYAWNWIRQFPGNKLEWLGYISYSGNTYYNPSLKSRISITRDTSKNQFFLHLNSVTTEDTATYYCAGNYVRWGQGTLVTVSAGGGGSGGGGSGGGGSDVVMTQTPLTLSVTIGQPASISCKSSQSLLYTNGKTYLNWLLQRPGQSPKRLIYLVSKLDSGVPDRFSGSGSGTDFTLKISRVEAEDLGVYYCLQSSHFPHTFGSGTKLEIK
B2: antibody 26F1 (antibody, mouse IgG2a, kappa, V domains shown)
VH: DVQLQESGPGLVKPSQSLSLTCTVTGYSITSDYAWNWIRQFPGNKLEWLGYISYSGNTYYNPSLKSRISITRDTSKNQFFLHLNSVTTEDTATYYCAGNYVRWGQGTLVTVSA
VL: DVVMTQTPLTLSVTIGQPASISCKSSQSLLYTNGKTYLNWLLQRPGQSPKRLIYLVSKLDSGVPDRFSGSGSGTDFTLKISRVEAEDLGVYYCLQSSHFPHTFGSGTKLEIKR
notes: Mouse monoclonal; Isotype is said to be preferably IgG2a kappa; also called 26F1 antibody; IgG 26F1
B3: 26F1 TaFv (tandem single-chain variable fragment) (scFv)
scFv: DVQLQESGPGLVKPSQSLSLTCTVTGYSITSDYAWNWIRQFPGNKLEWLGYISYSGNTYYNPSLKSRISITRDTSKNQFFLHLNSVTTEDTATYYCAGNYVRWGQGTLVTVSAGGGGSGGGGSGGGGSDVVMTQTPLTLSVTIGQPASISCKSSQSLLYTNGKTYLNWLLQRPGQSPKRLIYLVSKLDSGVPDRFSGSGSGTDFTLKISRVEAEDLGVYYCLQSSHFPHTFGSGTKLEIKGGGGSDVQLQESGPGLVKPSQSLSLTCTVTGYSITSDYAWNWIRQFPGNKLEWLGYISYSGNTYYNPSLKSRISITRDTSKNQFFLHLNSVTTEDTATYYCAGNYVRWGQGTLVTVSAGGGGSGGGGSGGGGSDVVMTQTPLTLSVTIGQPASISCKSSQSLLYTNGKTYLNWLLQRPGQSPKRLIYLVSKLDSGVPDRFSGSGSGTDFTLKISRVEAEDLGVYYCLQSSHFPHTFGSGTKLEIK

What was measured:
[1] = target: T1, alpha-synuclein oligomers (UniProt P37840 1-140); assay: ELISA, alpha-Syn oligomer coated plate
[2] = target: T1, alpha-synuclein oligomers; assay: ELISA, read from the graph, reference alpha-Syn monomer
[3] = target: T1, alpha-synuclein oligomers; assay: ELISA on alpha-Syn oligomer coat; half of the highest OD 450 nm, drawn table
[4] = target: T1, alpha-synuclein oligomers; assay: ELISA on alpha-Syn oligomer coat; row 'Titre (nM)' of the drawn table, concentration at DO (50%)
[5] = target: T1, alpha-synuclein oligomers; assay: ELISA, alpha-Syn oligomer coated plate, exp 1
Method: (§1) Binding affinities (EC50 values) towards different antigens were determined from ELISA experiments using antigen coated plates as follows. Absorbance data was corrected for background absorption obtained by incubating antigen coated plates without adding primary antibody but keeping all other parameters constant. The background corrected absorbance values were then plotted against the log value of the antibody concentration.
(§2) The curve was fitted using the Graphpad Prism software using the common binding function Abs450=Max/(1+10\hat{ }(([Log EC50−Log Ab]))) where “Abs450” is the background corrected experimental absorption, “Max” is the absorption upon complete binding saturation, “Log EC50” is the log of the EC50 value and “Log Ab” is the log of the antibody concentration.

[6] = target: T1, alpha-synuclein oligomers; assay: ELISA, alpha-Syn oligomer coated plate, exp 2
Method: as §1, §2

[7] = target: T1, alpha-synuclein oligomers; assay: ELISA, alpha-Syn oligomer coated plate, exp 3
Method: as §1, §2

[8] = target: T1, alpha-synuclein oligomers; assay: ELISA, ratio of EC50 values, reference alpha-Syn fibrils
Method: as §1, §2

[9] = target: T1, alpha-synuclein oligomers; assay: ELISA, ratio of binding affinities, reference alpha-Syn fibrils (FIG. 3)
Method: as §1, §2

[10] = target: T1, alpha-synuclein oligomers; assay: ELISA on antigen-coated plate, antibody titrated in tenfold steps, OD 450-630 nm
Method: as §1, §2

[11] = target: T1, alpha-synuclein oligomers; assay: ELISA on plates coated with ASO, ABO, AB fibrils, TAU oligo, TAU fibrils or no coat; antibody titrated, OD 450 nm

Row | Binder | EC50 [1] [nM] | specificity ratio of alpha-Syn oligomer compared to alpha-Syn monomer [2] | DO (50%) [3] | EC50 [4] [nM] | EC50 [5] [nM] | EC50 [6] [nM] | EC50 [7] [nM] | fold preference over alpha-Syn fibrils [8] [fold] | binding affinity ratio alpha-Syn oligomers:alpha-Syn fibrils [9] [fold] | EC50 (read off the curve) [10] [nM] | EC50 (read off the curve) [11] [µg/mL]
1 | B1 | ~3.7 | ≥ 100 | 0.744 | 3.66 | – | – | – | – | – | – | –
2 | B2 | – | – | 1.31 | 0.0966 | 0.039 | 0.027 | 0.09 | 20 | ≥ 20 | ~0.2 | ~0.01
3 | B3 | ~2 | ≥ 100 | 0.904 | 2.03 | – | – | – | – | – | – | –
